Experimental data published in the supplement of paper PMC12764529.
± gives the half width of the 95% confidence interval.

Tests used:
[1] = folding stability dG unfold (combined trypsin and chymotrypsin); higher = more stable
How it was run: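 Bayesian fitting of sequencing counts gave K50 for each design. Unfolding free energy followed by setting this against a sequence-predicted unfolded-state K50 and a shared folded-state K50, either per protease or with trypsin and chymotrypsin combined. The designs, under 80 residues and lacking cysteine, were digested in a PA-tagged cDNA display format at 11 threefold-diluted protease concentrations and without protease, and only those with AlphaFold2 dimer inter-PAE above 15 were kept.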

[2] = folding stability dG unfold from trypsin proteolysis; higher = more stable
Procedure: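 Folding stability of de novo designed mini-proteins (<80 aa, no Cys; designed by TrROS, TrMRF, ProteinMPNN and the joint model) was measured by cDNA display proteolysis with trypsin and chymotrypsin. Each protease was used at 11 concentrations in a threefold dilution series plus a no-protease condition. K50 was inferred by Bayesian fitting of sequencing counts, and dG unfold was derived against a sequence-predicted unfolded-state K50 (Tsuboyama et al. method). Sequences shown include variable-length N-terminal GS-type padding (SAGGSAGG...) inside a display construct carrying a PA tag. Rows were kept only if the AF2 dimer inter-PAE was >15, to exclude likely homo-oligomers.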

Sequence | folding stability dG unfold [1] | folding stability dG unfold [2]
SAGGSAGGSAMLTKTIKLPNGKPASVTITTLSEGSSPGSSVDPKLVINADPNIPKEIVDKLLSAGGSAGGSA [r18_272_JUSTAS] | -0.685 ± 0.13 kcal/mol | -0.624 ± 0.077 kcal/mol
SAGGSAGGSAMTPDELKDNFPNMPVEPRPLNNSTQWKIEMPGGMRIEIQYDPGKPKIDIEEGSAGGSAGGSA [r18_13_TrROS] | -0.622 ± 0.23 kcal/mol | -0.039 ± 0.064 kcal/mol
SAGGSAGGSAPLEELLDVIRSVPANTRAEFPIIVETETGYVPYIARVENPEPGGALIEIEKASAGGSAGGSA [r18_493_TrMRF] | < -1 kcal/mol | -0.258 ± 0.11 kcal/mol
SAGGSAGGSAPPPLPPDAVVTIPNPGSLEEVKKLAEKLREEHGIKKIKITVEPNSVTLTVASAGGSAGGSAG [r3_73_JUSTAS] | < -1 kcal/mol | 0.476 ± 0.15 kcal/mol
SAGGSAGGSASLPEKLAQEAKEKILKENPDVEVTEIVVTKLPPEKYTVTIKTPDGKTETIPLSAGGSAGGSA [r18_423_JUSTAS] | -0.308 ± 0.1 kcal/mol | -0.00229 ± 0.023 kcal/mol
SAGGSAGGSASSPSSPVKVTVTVTAPDSLVKTITVTKTPEGVIDLVLPSDIPSDYKITIIESAGGSAGGSAG [r3_44_JUSTAS] | -0.699 ± 0.51 kcal/mol | 0.0537 ± 0.08 kcal/mol
SAGGSAGGSASVSSPERFTVPRPDGTPVEVTLVEPEKGYYEVTDPATGERTRLPIEDIPPVSAGGSAGGSAG [r3_213_JUSTAS] | < -1 kcal/mol | -0.607 ± 0.12 kcal/mol
SAGGSAGGSATVDEVIKEAREEAREEHPNYPPGQTHTIKIRDPDNGEKVKIRFTNDGKIEISAGGSAGGSAG [r3_441_TrROS] | < -1 kcal/mol | -0.0324 ± 0.057 kcal/mol
SAGGSAGGSDILKNLPPGHKRVEIMFIPNMPMEKMKRMAKEIAPILRKRGVDVEIKVIPPDEMSAGGSAGGS [r12_456_TrROS] | 0.118 ± 0.36 kcal/mol | 0.859 ± 0.17 kcal/mol
SAGGSAGGSGMEEAIEKAKKEILEKNPDLPPNAVVNEPILVKDPSTDEEYVIPVTFTIPENNLSAGGSAGGS [r12_591_JUSTAS] | -0.61 ± 0.67 kcal/mol | -0.137 ± 0.063 kcal/mol
SAGGSAGGSGMKPAKVLKVEEFFDPKNNTSFKKVEAELPDRKITLELPPGEPVDENSTILVEESAGGSAGGS [r20_49_JUSTAS] | -0.759 ± 0.47 kcal/mol | -0.428 ± 0.28 kcal/mol
SAGGSAGGSGMVSSVVKHTVELNVPENRPNAEELAAELRAAHPGVTVVEITETPNKAVITVEESAGGSAGGS [r12_454_JUSTAS] | < -1 kcal/mol | 0.296 ± 0.062 kcal/mol
SAGGSAGGSIEIDHDRDPGTNRYTATVEIPDPDGKGLEVEVQMNGDPEDAAKTAAKTVLEEFNSAGGSAGGS [r20_33_TrROS] | < -1 kcal/mol | 0.07 ± 0.27 kcal/mol
SAGGSAGGSKIPIHIWVPPGGSPKKAKERIRRYIREQMPPGNKDMPIDDIKIDVHVMPPGQPVSAGGSAGGS [r12_384_TrROS] | < -1 kcal/mol | -0.427 ± 0.9 kcal/mol
SAGGSAGGSMDPGQPMEFIQIYPDPDGNLEIHVSEIRIDPDGGAKVTEVEPKRIDDAEDLAKFSAGGSAGGS [r12_386_TrROS] | < -1 kcal/mol | -0.752 ± 0.19 kcal/mol
SAGGSAGGSMMKVRVYARNKDGEEVPVEEIEIPPEVETPEEALKLAEELAKKEGVEEVRVEIESAGGSAGGS [r12_569_TrROS_Hall] | -0.609 ± 0.38 kcal/mol | -0.13 ± 0.19 kcal/mol
SAGGSAGGSMRFVTIKVPGPDTTFTFDTDGDEALEAKLAELEKKHPEIKKENIEKLEVNPGPGSAGGSAGGS [r12_852_JUSTAS] | < -1 kcal/mol | -0.345 ± 0.52 kcal/mol
SAGGSAGGSMSTSESVTVTFPDGSVRKATILKQEKLPNGTVPVEIVDEGGTSVGTRNWTVTAESAGGSAGGS [r12_735_JUSTAS] | < -1 kcal/mol | -0.456 ± 0.28 kcal/mol

Sequence | folding stability dG unfold [1] | folding stability dG unfold [2]
SAGGSAGGSMVLIEIYFKGPEKPIVFPAEGPEEVVEKLLELVEENPELGLDNIAEIRAYPGEESAGGSAGGS [r12_852_TrMRF] | 0.0303 ± 0.28 kcal/mol | 0.425 ± 0.074 kcal/mol
SAGGSAGGSMVLIIVPPSKPELAEEKAKELAEKGEIKEYEIKTVSSEEEAEKLAKNYEKVILESAGGSAGGS [r12_679_JUSTAS] | -0.324 ± 0.28 kcal/mol | -0.171 ± 0.083 kcal/mol
SAGGSAGGSMVTTSIDPSGTAKITVTDGGGVPVSTATIPVDPNAILTYDPNNSSISTFSPVSSSAGGSAGGS [r12_1002_JUSTAS] | -0.442 ± 0.24 kcal/mol | 0.519 ± 0.032 kcal/mol
SAGGSAGGSMYRYTVTFPNTGTVLEKEFESLEEAKKYIPKDRPIKEIKVEPVEPPVSPEVLLVSAGGSAGGS [r12_851_JUSTAS] | -0.651 ± 0.26 kcal/mol | -0.217 ± 0.18 kcal/mol
SAGGSAGGSPDNITFKVPDGPVRIENGNNEQEFPPGKTQTIPPKNPNNMRIEAFPPNIIKITPSAGGSAGGS [r20_150_TrROS] | < -1 kcal/mol | -0.793 ± 0.45 kcal/mol
SAGGSAGGSPVTVETSSQTSTVPLPTGPTVTLVTNTTTTTRPVPLSTPRSSSTTTVTTTVTVVSSAGGSAGG [r6_224_JUSTAS] | < -1 kcal/mol | -0.311 ± 0.11 kcal/mol
SAGGSAGGSSDTRTIPIPIDGYPVRISIDMNGSQTIEFPNPENKDDLKDLIPPGYNITEIEPWSAGGSAGGS [r12_9_TrROS] | < -1 kcal/mol | -0.999 ± 0.36 kcal/mol
SAGGSAGGSSPDIEVEITVDAPPGARILGTDGKPVEIPASNPKVKIIVIEGDNSFFIKTEPVGSAGGSAGGS [r12_338_TrMRF] | < -1 kcal/mol | -0.362 ± 0.22 kcal/mol
SAGGSAGGSSPEIPLPPEIAEEIEVPGSGTTVLLHPSTGLVLYKPPPEELAVGRYDPSTGVLESAGGSAGGS [r12_420_JUSTAS] | 0.475 ± 0.15 kcal/mol | 0.985 ± 0.051 kcal/mol
SAGGSAGGSSPIVVEEEPDRYVITIPPSQPELVEEVLEKLGLPAEDITRTLIPEGLVRYEVPGSAGGSAGGS [r12_493_JUSTAS] | < -1 kcal/mol | -0.419 ± 0.28 kcal/mol
SAGGSAGGSTPPLTTETEAVIEIEGGLYSVKVTQLPPDETLMTIPANGMIIRETPDKIEIRPESAGGSAGGS [r12_737_JUSTAS] | < -1 kcal/mol | -0.374 ± 0.28 kcal/mol
SAGGSAGGSVEIKSITTVTDPNSSANPTTITVKRDPAKGVLGEEVKAIAKALEEAGYPTTFGTSAGGSAGGS [r12_172_JUSTAS] | < -1 kcal/mol | -0.769 ± 0.17 kcal/mol
SAGGSAGGYVEVTIMIPPDDLDEIKEIAEPFGFTSVETERVPDNPMVVVKIEVKIPKEDDKDNKSAGGSAGG [r6_273_TrROS] | -0.139 ± 0.2 kcal/mol | 0.427 ± 0.054 kcal/mol
SAGGSALPPDQRLVVIDLGREPGVTPDEPVEVPEELIEKIKKENPNVKLVEVKHEGDKVTLYIAIKSAGGSA [r2_383_JUSTAS] | < -1 kcal/mol | -0.0124 ± 0.48 kcal/mol
SAGGSAMIKTYEEEVELTVPGGSTPVKVRVKTIEKIEKDEKGNLKTEVVEVKIETPENAPAVALLLSAGGSA [r15_258_JUSTAS] | -0.857 ± 0.51 kcal/mol | -0.327 ± 0.21 kcal/mol
SAGGSAMPPGQPWKIKRTIPFKDPNGWKITIYRMPDDGHVWVRWEPPNGGEREVWMPAEEAEDALKSAGGSA [r15_2_TrROS] | 0.307 ± 0.58 kcal/mol | 0.902 ± 0.23 kcal/mol
SAGGSAMVPEDEGLIVVERDVPFDKAEEFVEEVIEELGIPPEKVKKIELFEEKVEDGPALRALVYLSAGGSA [r15_934_TrMRF] | < -1 kcal/mol | -0.294 ± 0.32 kcal/mol
SAGGSAPGKKTIKIEIIFPFPEEQAKEFADYIAKGIADETGHDPENIDIKVEVHVFDPANNEPRPFSAGGSA [r15_918_TrROS] | -0.511 ± 0.25 kcal/mol | -0.236 ± 0.2 kcal/mol
